In US6866851:
One block for each substance: values may come before it.

How the values were obtained:
Assay in all cases: cell-based or functional assay
[1] = molecular target: GFRα1-RET receptor complex (cells transfected with GFRα1 and expressing RET)
[2] = molecular target: GFRα2-RET receptor complex (cells transfected with GFRα2 and expressing RET)
[3] = molecular target: GFRα3-RET receptor complex (cells transfected with GFRα3 and expressing RET)

Substance: GPG-F2c (GDNF homologue-scanning mutant, region F2c replaced by persephin sequence) (ligand)
GFRα1-RET reporter activation relative to GDNF (% of full-length GDNF) [1]: < 60

Substance: GPG-Ha (GDNF homologue-scanning mutant, region Ha replaced by persephin sequence) (ligand)
GFRα1-RET reporter activation (FIG. 4, percentage of reporter activation by GDNF) [1]: 80%
GFRα2-RET reporter activation (FIG. 4, percentage of reporter activation by GDNF) [2]: 27%

Substance: PAP-Ha/F2ac (persephin with regions Ha, F2a and F2c from artemin) (ligand)
GFRα3-RET reporter activation relative to artemin (% of full length artemin) [3]: 70 to 80

Continued, values first:

GFRα2-RET reporter activation relative to GDNF [2]: < 30 % of GDNF
Substance: PNP-F2ac (His-Flag-PNP-F2ac, from mouse sequences) (ligand)

GFRα2-RET reporter activation relative to GDNF [2]: 70 to 80 % of GDNF
Substance: PNP-Ha/F2ac (persephin with regions Ha, F2a and F2c from neurturin) (ligand)
